Measured values taken from patent publication US20100144530A1, “IDENTIFICATION OF A NEW CLASS OF EPSP SYNTHASES” (priority 2005, published 2010).

Test system: ΔaroA E. coli cells
Test: Complementation of ΔaroA E. coli cells (functional EPSP synthase)
Assay type: cell-based
Details: plasmid transformed into ΔaroA E. coli cells

B1: grg9: EPSP synthase ORF from Agrobacterium tumefaciens strain C58, in plasmid pAX702 (SEQ ID NO:3/4) (protein)
chain: MIELTITPPGHPLSGKVEPPGSKSITNRALLLAGLAKGKSHLSGALKSDDTLYMAEALREMGVKVTEPDATTFVVEGTGVLQQPEKPLFLGNAGTATRFLTAAGALVDGAVIIDGDEHMRKRPILPLVQALRALGVEADAPTGCPPVTVRGKGMGFPKGSVTIDANLSSQYVSALLMAAACGDKPVDIILKGEEIGAKGYIDLTTSAMEAFGAKVERVSNAIWRVHPTGYTATDFHIEPDASAATYLWGAELLTGGAIDIGTPADKFTQPDAKAYEVMAQFPHLPAEIDGSQMQDAIPTIAVIAAFNETPVRFVGIANLRVKECDRIRAVSLGLNEIREGLAHEEGDDLIVHADPSLAGQTVDASIDTFADHRIAMSFALAALKIGGIAIQNPACVAKTYPGYWKALASLGVDYTEKESAAEPQH
- Complementation of the aroA deletion: complement the deletion

B2: grg6: EPSP synthase ORF from Pseudomonas syringae pv. tomato strain DC3000, in plasmid pAX703 (SEQ ID NO:1/2) (protein)
chain: MRPQATLTVMPVERPLVGRVSPPGSKSITNRALLLAGLAKGTSRLTGALKSDDTRVMSEALRLMGVQVDEPDDSTFVVTSSGHWQAPQQALFLGNAGTATRFLTAALANFEGDFVVDGDEYMRKRPIGPLVDALQRMGVEISAPSGCPPVAIKGKGGLQAGRIEIDGNLSSQYVSALLMAGACGKGSLEVALTGSEIGARGYVDLTLAAMQAFGAEVQAIGDAAWKVSATGYHATDFHIEPDASAATYLWAAQALTEGNIDLGVASDAFTQPDALASQIIDSFPNMPAVIDGSQMQDAIPTLAVLAAFNRQPVRFVGIANLRVKECDRISALCDGLCAIAPGLAVEEGDDLIVHANPALAGTTVNALIDTHSDHRIAMCFALAGLKIKGIHIQDPDCVAKTYPGYWDALASLGVSVQR
- Complementation of the aroA deletion: complement the deletion
